B1: Stage VI sporulation protein D (Bacillus subtilis), P37963 (parent)
chain: MPQNHRLQFSVEESICFQKGQEVSELLSISLDPDIRVQEVNDYVSIIGSLELTGEYNIDQNKHTEEIYTDKRFVEQVRKREDGSAELTHCFPVDITIPKNKVSHLQDVFVFIDAFDYQLTDSRILTIQADLAIEGLLDDTQDKEPEIPLYEAPAAFREEELSEPPAHSVVEEPGASSAEEAVLQHEPPAEPPELFISKAGLREELETEKAESEPPESVASEPEAREDVKEEEESEELAVPETEVRAESETEESEPEPDPSEIEIQEIVKAKKETAEPAAAIADVREEADSPAETELREHVGAEESPALEAELHSETVIAKEKEETTVSPNHEYALRQEAQNEEAAQSDQADPALCQEEAEPDEALESVSEAALSIEDSRETASAVYMENDNADLHFHFNQKTSSEEASQEELPEPAYRTFLPEQEEEDSFYSAPKLLEEEEQEEESFEIEVRKTPSAEEPKEETPFQSFQLPESSETERKETDAVPRVAPAAETKEPQTKESDNSLYLTKLFTKEADEFSRMKICIVQQEDTIERLCERYEITSQQLIRMNSLALDDELKAGQILYIPQYKNSHA
partner: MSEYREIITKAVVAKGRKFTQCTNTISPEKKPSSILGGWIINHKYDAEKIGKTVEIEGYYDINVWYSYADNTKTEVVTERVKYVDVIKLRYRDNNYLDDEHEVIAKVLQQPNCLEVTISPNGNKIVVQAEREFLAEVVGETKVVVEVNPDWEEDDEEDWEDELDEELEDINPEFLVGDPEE

Variants of: B1
Conditions: with cote_bacsu cotE

Variant	effect of a mutation on the interaction
I127A	decreasing interaction strength
L131A	decreasing interaction strength

Variants of: B1
Conditions: with cote_bacsu cotE
Remark: another data set of the same source

Variant	effect of a mutation on the interaction
L131A	disrupting interaction

From IntAct's records for PubMed 22773792
